From PMC6555848 (2019)

Key:
His-tagged ABL1 kinase [1] = biological target: T1, His-tagged ABL1 kinase (UniProt P00519 1-1130); experiment: SPR; two-state model, kd1
His-tagged ABL1 kinase [2] = biological target: T1, His-tagged ABL1 kinase; experiment: SPR; two-state model

T1 sequence (P00519 whole entry): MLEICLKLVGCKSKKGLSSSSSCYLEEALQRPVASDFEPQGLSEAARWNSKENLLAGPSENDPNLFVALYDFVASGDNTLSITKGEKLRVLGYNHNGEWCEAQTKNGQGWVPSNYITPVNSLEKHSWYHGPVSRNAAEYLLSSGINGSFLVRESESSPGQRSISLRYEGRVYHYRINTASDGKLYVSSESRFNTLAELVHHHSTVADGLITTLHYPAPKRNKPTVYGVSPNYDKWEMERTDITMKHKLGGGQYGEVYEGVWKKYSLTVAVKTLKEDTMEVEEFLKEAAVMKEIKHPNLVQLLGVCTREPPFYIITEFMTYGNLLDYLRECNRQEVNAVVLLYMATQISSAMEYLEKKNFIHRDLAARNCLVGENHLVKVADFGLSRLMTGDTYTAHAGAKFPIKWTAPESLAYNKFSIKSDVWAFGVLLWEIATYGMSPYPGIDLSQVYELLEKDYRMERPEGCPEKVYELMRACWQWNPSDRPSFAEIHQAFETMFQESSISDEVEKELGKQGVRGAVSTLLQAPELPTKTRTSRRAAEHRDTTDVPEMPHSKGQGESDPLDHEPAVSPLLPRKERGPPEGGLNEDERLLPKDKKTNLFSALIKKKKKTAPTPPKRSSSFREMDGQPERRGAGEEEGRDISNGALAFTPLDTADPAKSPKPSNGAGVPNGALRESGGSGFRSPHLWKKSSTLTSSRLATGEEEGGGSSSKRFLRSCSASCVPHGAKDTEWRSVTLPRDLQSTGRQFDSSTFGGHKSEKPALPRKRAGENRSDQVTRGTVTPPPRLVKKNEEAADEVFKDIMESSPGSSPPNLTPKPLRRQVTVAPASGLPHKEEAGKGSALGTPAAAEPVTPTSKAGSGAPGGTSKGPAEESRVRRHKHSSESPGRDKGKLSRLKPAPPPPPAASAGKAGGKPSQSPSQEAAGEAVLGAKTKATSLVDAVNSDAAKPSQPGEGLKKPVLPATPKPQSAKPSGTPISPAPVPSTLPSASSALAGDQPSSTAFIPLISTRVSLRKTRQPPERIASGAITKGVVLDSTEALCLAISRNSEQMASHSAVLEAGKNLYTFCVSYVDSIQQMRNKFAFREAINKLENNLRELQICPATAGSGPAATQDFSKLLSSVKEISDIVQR

- koff (His-tagged ABL1 kinase [1]): 93.9 s⁻¹
- Kd (His-tagged ABL1 kinase [2]): 280 nM
B1: full-length human STAT5B (M1-S787) (natural protein)
chain: MAVWIQAQQLQGEALHQMQALYGQHFPIEVRHYLSQWIESQAWDSVDLDNPQENIKATQLLEGLVQELQKKAEHQVGEDGFLLKIKLGHYATQLQNTYDRCPMELVRCIRHILYNEQRLVREANNGSSPAGSLADAMSQKHLQINQTFEELRLVTQDTENELKKLQQTQEYFIIQYQESLRIQAQFGPLAQLSPQERLSRETALQQKQVSLEAWLQREAQTLQQYRVELAEKHQKTLQLLRKQQTIILDDELIQWKRRQQLAGNGGPPEGSLDVLQSWCEKLAEIIWQNRQQIRRAEHLCQQLPIPGPVEEMLAEVNATITDIISALVTSTFIIEKQPPQVLKTQTKFAATVRLLVGGKLNVHMNPPQVKATIISEQQAKSLLKNENTRNDYSGEILNNCCVMEYHQATGTLSAHFRNMSLKRIKRSDRRGAESVTEEKFTILFESQFSVGGNELVFQVKTLSLPVVVIVHGSQDNNATATVLWDNAFAEPGRVPFAVPDKVLWPQLCEALNMKFKAEVQSNRGLTKENLVFLAQKLFNNSSSHLEDYSGLSVSWSQFNRENLPGRNYTFWQWFDGVMEVLKKHLKPHWNDGAILGFVNKQQAHDLLINKPDGTFLLRFSDSEIGGITIAWKFDSQERMFWNLMPFTTRDFSIRSLADRLGDLNYLIYVFPDRPKDEVYSKYYTPVPCESATAKAVDGYVKPQIKQVVPEFVNASADAGGGSATYMDQAPSPAVCPQAHYNMYPQNPDSVLDTDGDFDLEDTMDVARRVEELLGRPMDSQWIPHAQS
